Experimental data published in paper PMC6201588, “Molecular cloning and characterization of vanillin dehydrogenase from Streptomyces sp. NL15-2K” (BMC Microbiology, 2018).

Assays:
[1] = target: vanillin dehydrogenase from Streptomyces sp. NL15-2K (recombinant) (Streptomyces sp. NL15-2K); experiment: SEC; gel filtration of purified recombinant VDH on Superdex 200 10/300 GL, calibrated with thyroglobulin, ferritin, aldolase, conalbumin and ovalbumin; native mass compared with the subunit mass by SDS-PAGE
COc1cc(C=O)ccc1O = experiment: purified protein; conditions: co-substrate NAD+ (0.5 mM in standard assay), 30 °C, pH 9.5
[2] = system: NC(=O)c1ccc[n+]([C@@H]2O[C@H](COP(=O)(O)OP(=O)(O)OC[C@H]3O[C@@H](n4cnc5c(N)ncnc54)[C@H](O)[C@@H]3O)[C@@H](O)[C@H]2O)c1; experiment: purified protein; conditions: co-substrate vanillin, pH 9.5, varied: cofactor

stoichiometry N [1]	Substance	Km (COc1cc(C=O)ccc1O)	kcat (COc1cc(C=O)ccc1O)	kcat/Km (COc1cc(C=O)ccc1O)	Km [2]	kcat [2]
4	vanillin dehydrogenase from Streptomyces sp. NL15-2K (recombinant) (enzyme)					
	VDH (vanillin dehydrogenase) from Streptomyces sp. NL15-2K (Streptomyces sp. NL15-2K; S2A)	8.47 ± 0.91 µM	9.35 ± 0.77 s⁻¹	1.11e+06 ± 100000 M⁻¹ s⁻¹	647 ± 40.0 µM	23.45 ± 0.59 s^− 1
